# From patent US20180016614
# Legend:
# [1] = test system: His-tagged double mutant T7 RNA polymerase K183G, K190L expressed by C321.ΔA.759.T7.D
# [2] = test system: N-terminally 6-His-tagged T7 RNA polymerase (wild type) expressed by C321.ΔA.759.T7
substance,measurement,setting,value
Outer membrane protease VII (OmpT),proteolytic cleavage of double mutant T7RNAP in lysate (α-His western blot),[1],the double mutant T7RNAP expressed by C321.ΔA.759.T7.D is not cleaved despite the presence of active OmpT in the cellular lysate
same,proteolytic cleavage of T7RNAP during lysate preparation (α-His western blot),[2],the T7RNAP produced by the strain is cleaved near the N-terminus to yield a ˜21 kDa fragment
same,proteolytic cleavage of T7RNAP in lysate of the ompT knockout strain (α-His western blot),[2],a Western blot revealed that in the absence of OmpT the T7RNAP is no longer cleaved
